Experimental data from PMC5345052, “Auto-phosphorylation Represses Protein Kinase R Activity” (Scientific Reports, 2017).

Target: the molecule itself
Assay: liquid chromatography; recombinant PKR isolated during purification as separate monomer and dimer species

B1: PKR K296R-S33E-T42E, recombinant His-tagged full-length protein kinase R (enzyme, human, UniProt P19525 1-551, looked up)
chain: MAGDLSAGFFMEELNTYRQKQGVVLKYQELPNEGPPHDRRFEFQVIIDGREFPEGEGRSKKEAKNAAAKLAVEILNKEKKAVSPLLLTTTNSSEGLSMGNYIGLINRIAQKKRLTVNYEQCASGVHGPEGFHYKCKMGQKEYSIGTGSTKQEAKQLAAKLAYLQILSEETSVKSDYLSSGSFATTCESQSNSLVTSTLASESSSEGDFSADTSEINSNSDSLNSSSLLMNGLRNNQRKAKRSLAPRFDLPDMKETKYTVDKRFGMDFKEIELIGSGGFGQVFKAKHRIDGKTYVIRRVKYNNEKAEREVKALAKLDHVNIVHYNGCWDGFDYDPETSDDSLESSDYDPENSKNSSRSKTKCLFIQMEFCDKGTLEQWIEKRRGEKLDKVLALELFEQITKGVDYIHSKKLIHRDLKPSNIFLVDTKQVKIGDFGLVTSLKNDGKRTRSKGTLRYMSPEQISSQDYGKEVDLYALGLILAELLHVCDTAFETSKFFTDLRDGIISDIFDKKEKTLLQKLLSKKPEDRPNTSEILRTLTVWKKSPEKNERHTC
notes: protein kinase R (PKR), human, full-length molecule with K296R and the phosphor-mimetic S33E and T42E; also called triple mutant; source: isolated by liquid chromatography as monomer and as dimer
- stoichiometry N: 2
